Test [1] has as its target T1, AXLECDHis (human, UniProt P30530 26-447).
T1 construct: theoretical mass 46 kDa used; also called extracellular domain (ECD) of human AXL (aa 1-447) with a C-terminal His tag; soluble recombinant AXL extracellular domain
In words: BLI (Octet), IgG on anti-human Fc sensor, AXLECDHis analyte.

Test [2] addresses T2, human AXL (full length) (human, UniProt P30530 26-894).
T2 construct: also called TH1021-AXL; TH1021-hAXL
In words: flow cytometry, HEK293T cells with full-length human AXL. (A flow cytometer gives signals particle by particle.)

Test [3] concerns the target T1, AXLECDHis. Nature of the test: BLI (Octet), IgG on anti-human Fc sensor, AXLECDHis analyte. The source holds these as a separate data set.
Test [4] deals with T3, human AXL with a cynomolgus monkey extracellular domain (ECD) (cynomolgus monkey (Macaca …, UniProt P30530 26-894)).
T3 construct: Chimera on transfected HEK293T cells; also called cynomolgus AXL; cynomolgus AXL-ECD
T3 chain: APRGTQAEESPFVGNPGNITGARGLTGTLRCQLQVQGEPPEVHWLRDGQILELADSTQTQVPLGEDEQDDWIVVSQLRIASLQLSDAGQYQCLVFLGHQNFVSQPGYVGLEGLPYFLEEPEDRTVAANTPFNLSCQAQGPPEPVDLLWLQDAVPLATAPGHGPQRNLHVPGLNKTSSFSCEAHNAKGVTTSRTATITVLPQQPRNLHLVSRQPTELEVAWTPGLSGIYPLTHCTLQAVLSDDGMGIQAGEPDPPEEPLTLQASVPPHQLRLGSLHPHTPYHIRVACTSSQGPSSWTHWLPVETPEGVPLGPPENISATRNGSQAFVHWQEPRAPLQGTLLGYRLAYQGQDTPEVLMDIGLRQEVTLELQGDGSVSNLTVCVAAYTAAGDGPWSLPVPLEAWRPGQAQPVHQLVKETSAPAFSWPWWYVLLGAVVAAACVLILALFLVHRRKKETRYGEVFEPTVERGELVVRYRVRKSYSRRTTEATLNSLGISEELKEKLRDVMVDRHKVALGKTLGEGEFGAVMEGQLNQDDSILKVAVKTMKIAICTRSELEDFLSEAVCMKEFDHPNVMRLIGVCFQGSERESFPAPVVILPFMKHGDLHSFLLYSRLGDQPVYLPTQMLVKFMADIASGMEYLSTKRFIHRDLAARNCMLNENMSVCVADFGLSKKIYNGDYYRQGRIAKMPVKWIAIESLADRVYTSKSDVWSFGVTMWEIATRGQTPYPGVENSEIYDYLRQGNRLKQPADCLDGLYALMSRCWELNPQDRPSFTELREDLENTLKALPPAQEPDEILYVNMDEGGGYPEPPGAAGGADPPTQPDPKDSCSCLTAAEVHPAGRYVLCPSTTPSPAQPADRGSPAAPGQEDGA
Nature of the test: flow cytometry, HEK293T cells with human AXL carrying cynomolgus ECD.

Test [5] concerns the target T2, human AXL (full length). Nature of the test: flow cytometry, HEK293T cells transiently transfected with human AXL.
Test [6] deals with T4, Homo sapiens AXL-Mus musculus Ig1 domain (p33-AXL-mIg1) (human-mouse chimera, UniProt P30530 8-894).
T4 construct: Expressed in HEK293F cells; also called hsAXL-mmIg1; hsAXL-mmIgl
T4 chain: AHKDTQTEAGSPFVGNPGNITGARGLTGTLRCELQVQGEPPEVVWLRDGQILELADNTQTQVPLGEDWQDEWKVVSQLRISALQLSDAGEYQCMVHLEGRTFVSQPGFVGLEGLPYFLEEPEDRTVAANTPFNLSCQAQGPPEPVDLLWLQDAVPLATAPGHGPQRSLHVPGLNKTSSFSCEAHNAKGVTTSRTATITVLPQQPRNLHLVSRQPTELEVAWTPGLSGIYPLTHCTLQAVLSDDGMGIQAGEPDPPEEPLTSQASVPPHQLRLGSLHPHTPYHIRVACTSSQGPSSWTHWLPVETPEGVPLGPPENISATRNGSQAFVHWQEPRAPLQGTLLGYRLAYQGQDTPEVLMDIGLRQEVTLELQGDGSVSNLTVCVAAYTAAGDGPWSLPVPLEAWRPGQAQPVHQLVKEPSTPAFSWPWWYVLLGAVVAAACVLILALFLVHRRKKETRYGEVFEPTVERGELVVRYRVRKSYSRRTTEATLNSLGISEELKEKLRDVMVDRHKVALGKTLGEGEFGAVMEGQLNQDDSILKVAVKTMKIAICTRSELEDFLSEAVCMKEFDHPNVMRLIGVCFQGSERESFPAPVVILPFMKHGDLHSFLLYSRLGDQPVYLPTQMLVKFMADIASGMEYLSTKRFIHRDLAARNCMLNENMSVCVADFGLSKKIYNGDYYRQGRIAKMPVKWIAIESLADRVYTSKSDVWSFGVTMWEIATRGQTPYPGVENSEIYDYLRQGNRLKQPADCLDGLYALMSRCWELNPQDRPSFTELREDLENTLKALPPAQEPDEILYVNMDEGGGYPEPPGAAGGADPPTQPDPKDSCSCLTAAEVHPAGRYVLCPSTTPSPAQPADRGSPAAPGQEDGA
Nature of the test: flow cytometry, 1 µg/mL antibody, transfected HEK293F cells.

Test [7] deals with T5, Homo sapiens AXL-Mus musculus FN1 domain (p33-AXL-mFN1) (human-mouse chimera, UniProt P30530 26-894).
T5 construct: Expressed in HEK293F cells; also called hsAXL-mmFN1; TH1021-mFN1
T5 chain: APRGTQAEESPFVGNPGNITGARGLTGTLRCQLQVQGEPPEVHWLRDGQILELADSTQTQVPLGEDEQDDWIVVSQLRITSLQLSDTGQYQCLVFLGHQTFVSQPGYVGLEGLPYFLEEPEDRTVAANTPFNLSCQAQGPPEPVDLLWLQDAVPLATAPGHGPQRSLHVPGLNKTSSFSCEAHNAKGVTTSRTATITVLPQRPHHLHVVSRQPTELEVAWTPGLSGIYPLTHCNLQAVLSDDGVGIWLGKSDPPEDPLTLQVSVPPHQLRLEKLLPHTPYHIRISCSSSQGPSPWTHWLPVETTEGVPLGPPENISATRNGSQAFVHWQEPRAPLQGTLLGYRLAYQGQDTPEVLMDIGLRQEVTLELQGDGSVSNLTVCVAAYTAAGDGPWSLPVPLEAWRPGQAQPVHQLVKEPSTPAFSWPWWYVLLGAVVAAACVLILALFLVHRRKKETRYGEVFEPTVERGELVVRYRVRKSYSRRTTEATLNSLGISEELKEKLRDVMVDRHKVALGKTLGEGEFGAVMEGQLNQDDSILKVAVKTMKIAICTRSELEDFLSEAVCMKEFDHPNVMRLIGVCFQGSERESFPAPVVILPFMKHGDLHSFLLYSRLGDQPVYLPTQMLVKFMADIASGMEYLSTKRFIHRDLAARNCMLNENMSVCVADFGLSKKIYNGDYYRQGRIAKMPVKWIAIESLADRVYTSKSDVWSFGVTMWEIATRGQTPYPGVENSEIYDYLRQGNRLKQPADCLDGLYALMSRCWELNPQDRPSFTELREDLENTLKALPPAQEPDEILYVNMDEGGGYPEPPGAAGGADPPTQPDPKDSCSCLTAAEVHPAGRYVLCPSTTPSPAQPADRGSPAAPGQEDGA
The description is as above.

In test [8] the target is T6, Homo sapiens AXL-Mus musculus FN2 domain (p33-AXL-mFN2) (human-mouse chimera, UniProt P30530 26-894).
T6 construct: Expressed in HEK293F cells; also called hsAXL-mmFN2; TH1021-mFN2
T6 chain: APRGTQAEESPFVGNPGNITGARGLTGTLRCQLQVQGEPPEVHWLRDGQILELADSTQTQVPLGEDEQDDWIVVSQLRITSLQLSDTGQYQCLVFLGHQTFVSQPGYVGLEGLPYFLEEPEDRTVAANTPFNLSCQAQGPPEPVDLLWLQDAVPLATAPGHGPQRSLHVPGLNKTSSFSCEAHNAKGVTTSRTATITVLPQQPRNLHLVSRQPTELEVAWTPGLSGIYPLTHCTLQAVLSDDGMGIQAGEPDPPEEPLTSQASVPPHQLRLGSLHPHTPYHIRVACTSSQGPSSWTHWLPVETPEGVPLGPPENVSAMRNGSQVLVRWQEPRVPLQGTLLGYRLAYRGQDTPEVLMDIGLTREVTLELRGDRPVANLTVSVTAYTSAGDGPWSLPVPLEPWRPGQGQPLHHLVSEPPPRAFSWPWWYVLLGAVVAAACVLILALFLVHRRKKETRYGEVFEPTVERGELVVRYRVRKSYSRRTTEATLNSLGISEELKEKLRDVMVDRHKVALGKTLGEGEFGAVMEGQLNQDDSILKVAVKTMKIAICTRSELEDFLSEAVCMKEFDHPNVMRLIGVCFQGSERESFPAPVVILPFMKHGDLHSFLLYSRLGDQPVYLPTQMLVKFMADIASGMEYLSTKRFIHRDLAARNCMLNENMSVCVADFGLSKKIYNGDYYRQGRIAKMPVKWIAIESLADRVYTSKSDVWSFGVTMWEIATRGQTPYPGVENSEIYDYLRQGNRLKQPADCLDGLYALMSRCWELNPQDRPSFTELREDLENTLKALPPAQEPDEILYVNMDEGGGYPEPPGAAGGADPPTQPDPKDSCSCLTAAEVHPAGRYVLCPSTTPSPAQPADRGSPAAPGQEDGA
The test is described as above.

Test [9] addresses T2, human AXL (full length). In words: flow cytometry, A431 cells, no Gas6.
Test [10] concerns the target T2, human AXL (full length). In words: flow cytometry, A431 cells pre-incubated with 10 µg/mL Gas6 (competitor).

This note sets out measurements from patent publication US20180326084A1 (Genmab, published 2018).

Where a chain is given by its changes, count along the chain named. Where two headings read alike, the source gives them in different places.

One may read the EC50 as the concentration giving half of the maximal effect. As a reminder, the Kd is the constant that tells how readily two partners part at equilibrium. In general, koff refers to the rate constant with which the complex falls apart. As a reminder, the kon is the rate constant with which the complex forms. As a reminder, the EC50 (read off the curve) is the concentration that produces a half-maximal response.

B1: IgG1-AXL-183-N52Q (antibody, V domains shown)
VH: QVQLQQWGAGLLKPSETLSLTCAVYGGSFSGYYWSWIRQPPGKGLEWIGEIQQSGSTNYNPSLKSRVTISVDTSKNQFSLKLSSVTAADTSVYYCASGNWDHFFDYWGQGTLVTVSS
VL: DIQMTQSPSSVSASVGDRVTITCRASQGISSWLAWYQHKPGKAPKLLIYATSSLQSGVTSRFSGSGSGTDFTLTISSLQPEDFATYYCQQAKSFPWTFGQGTKVEIK
notes: Expressed as human IgG1,κ; also called IgG1-AXL-183-N520
Take B1: the “fold change of dissociation rate against wild-type IgG1-AXL-183” value in test [1] is approximately 2.5 fold. The molecule further registered a 50% effective concentration (EC50) in [2] of 0.35 µg/mL. In test [3], this molecule displayed a Kd of 24 nM, a koff of 0.001 s⁻¹ and a kon of 42000 M⁻¹ s⁻¹. This molecule also displayed an EC50 in test [4] of 0.324 µg/mL.

B2: IgG1-AXL-183-A-vcDuo3 (antibody, V domains shown)
VH: B1 VH with Q52N
VL: B1 VL
modifications: drug-linker on lysine(s); chain and position not given
notes: also called IgG1-AXL-183-vcDuostatin3; IgG1-AXL-183-vcDuo3
Regarding B2, the 50% effective concentration (EC50 (read off the curve)) in test [5] is approximately 0.2 µg/mL.

B3: IgG1-AXL-171 (antibody, V domains shown)
VH: EVQLLESGGGLVQPGGSLRLSCAASGFTFSSYAMSWVRQAPGKGLEWVSDISVSGGSTYYADSVKGRFTISRDNSKNTLYLQMNSLRAEDTAVYYCAKEGYIWFGESLSYAFDIWGQGTMVTVSS
VL: not shown
Consider B3, for which the binding result in test [6], in test [7] and in test [8] was “binds” throughout.

B4: IgG1-AXL-148-A-vcDuo3 (antibody, V domains shown)
VH: EVQLLESGGGLVQPGGSLRLSCAASGFTFSSYAMTWVRQAPGKGLEWVSAISISGGSTFYADSVKGRFTISRDNSKNTLYLQMNSLRAEDTAVYYCRGYSGYVYDAFDFWGQGTMVTVSS
VL: DIQMTQSPSSLSASVGDRVTITCRASQGISNWLAWYQQKPEKAPKSLIYAASSLQSGVPSRFSGSGSGTDFTLTISSLQPEDFATYYCQQYNSYPLTFGGGTKVEIK
modifications: drug-linker on lysine(s); chain and position not given
notes: also called IgG1-AXL-148-vcDuostatin3; IgG1-AXL-148-vcDuo3
Take B4: the binding result in test [5] is “binds”.

B5: IgG1-AXL-511 (antibody, V domains shown)
VH: EVQLLESGGGLVQPGGSLRLSCAASGFTFSSYAMNWVRQAPGKGLEWVSGISGSGGHTYHADSVKGRFTISRDNSKNTLYLQMNSLRAEDTAVYYCAKDRYDILTGYYNLLDYWGQGTLVTVSS
VL: B4 VL with N31S, K42E, T102A
notes: also called clone 511
B5 gave an EC50 in test [9] of 0.12 µg/mL. In test [1], this molecule came in with a Kd of 23 nM, a koff of 0.0039 s⁻¹ and a kon of 170000 M⁻¹ s⁻¹. Also, in test [10], the EC50 was 0.3 µg/mL and the “maximal binding in presence of Gas6 (% of binding in absence of Gas6)” value was 93%.
